Measured values published in paper PMC3462199, “Recombinant Adiponectin Does Not Lower Plasma Glucose in Animal Models of Type 2 Diabetes” (PLoS ONE, 2012).
Substitutions are numbered along the chain they refer to. Names and notes keep the numbering of the source. Values joined by “and” are separate entries in the source; they are usually repeats but may differ in a detail not shown here. Equal values may be shown once.

B1: C39S version of full length murine adiponectin (C39S mAd), Q60994 18-247 (natural protein)
chain: EDDVTTTEELAPALVPPPKGTSAGWMAGIPGHPGHNGTPGRDGRDGTPGEKGEKGDAGLLGPKGETGDVGMTGAEGPRGFPGTPGRKGEPGEAAYVYRSAFSVGLETRVTVPNVPIRFTKIFYNQQNHYDGSTGKFYCNIPGLYYFSYHITVYMKDVKVSLFKKDKAVLFTYDQYQEKNVDQASGSVLLHLEVGDQVWLQVYGDGDHNGLYADNVNDSTFTGFLLYHDTN
modifications: here or on the partner: detected proline hydroxylations at 47, 50, 56, 65, 79; detected lysine hydroxylations at 68, 71, 80, 104; detected proline hydroxylations at 47, 50, 56, 65, 79; detected lysine hydroxylations at 68, 71, 80, 104
B2: C39S version of full length murine adiponectin (C39S mAd) (protein)
chain: B1 chain
B3: Mouse globular adiponectin with an amino terminal FlagTag (FLAG-mgAd) (domain or fragment, murine, UniProt Q60994 109-247, looked up)
chain: EAAYMYRSAFSVGLETRVTVPNVPIRFTKIFYNQQNHYDGSTGKFYCNIPGLYYFSYHITVYMKDVKVSLFKKDKAVLFTYDQYQEKNVDQASGSVLLHLEVGDQVWLQVYGDGDHNGLYADNVQDSTFTGFLLYHDTN
notes: N233Q to prevent N-glycosylation; the methods mention only N233Q; Total mass printed: 17054 Da; also called FLAG tagged mouse globular adiponectin; source: S. cerevisiae ME1719, supernatant, purified (Q Sepharose FF, Superdex 200)
B4: Full length human adiponectin (hAd), high molecular weight form (protein)
chain: ETTTQGPGVLLPLPKGACTGWMAGIPGHPGHNGAPGRDGRDGTPGEKGEKGDPGLIGPKGDIGETGVPGAEGPRGFPGIQGRKGEPGEGAYVYRSAFSVGLETYVTIPNMPIRFTKIFYNQQNHYDGSTGKFHCNIPGLYYFAYHITVYMKDVKVSLFKKDKAMLFTYDQYQENNVDQASGSVLLHLEVGDQVWLQVYGEGERNGLYADNDNDSTFTGFLLYHDTN
B5: Full length murine adiponectin (mAd) (protein)
chain: B1 chain with S22C
B6: Full length human adiponectin (hAd), high molecular weight form (natural protein, UniProt Q15848 19-244, looked up)
chain: B4 chain
modifications: detected proline hydroxylations at 71, 76, 95; detected lysine hydroxylations at 33, 65, 68, 77, 101 (glycosylated hydroxylysyl)
notes: human adiponectin; coding region amplified from Human Adipocyte Marathon Ready cDNA; the original signal peptide was replaced by the human CD33 signal peptide and the protein was secreted; also called HMW hAd; HMW adiponectin; source: HMW form isolated; copies: 18
B7: Full length murine adiponectin (mAd) (natural protein, UniProt Q60994 18-247, looked up)
chain: B1 chain with S22C
modifications: detected proline hydroxylations at 65, 79; detected lysine hydroxylations at 36, 68, 71, 80, 104
notes: murine adiponectin; coding region amplified from a mouse spleen cDNA library; the original signal peptide was replaced by the human CD33 signal peptide and the protein was secreted; The forward primer begins with catcatcat (three His codons) followed by gcc gaa gat gac gtt (A E D D V); Batch is a mixture of trimer and hexamer

Legend:
[1] = target: Murine globular adiponectin (mgAd) (murine); experiment: not stated; oligomeric form and share of trimer/hexamer/HMW in the purified batch as listed in Table 1; the table does not say whether from analytical SEC (Figure 1A) or AF4-MALS
[2] = as above
[3] = target: T1, C39S version of full length murine adiponectin (C39S mAd) (murine), Q60994; experiment: as above; settings: remark: other sources report otherwise
T1 chain: B1 chain

Q60994 = experiment: as above
[4] = target: the molecule itself; experiment: as above
Q15848 = experiment: as above
[5] = target: the molecule itself; experiment: AF4-MALS; purified batch; 20 mM Tris-HCl pH 7.4, 100 mM NaCl, 1 mM CaCl2; self-association, size of the oligomer

Molecule | % HMW (Q60994) [%] | % hexamer [4] [%] | % trimer [4] [%] | other results
Murine globular adiponectin (mgAd) (domain or fragment) | – | – | – | % hexamer [1]: -0%; % trimer [1]: 100%
Murine globular adiponectin (mgAd) | – | – | – | % HMW [2]: 0%
B1 | – | – | – | % hexamer [3]: -0%; % trimer [3]: 100%; stoichiometry N [3]: 3
B2 | 0 | – | – | –
B3 | 0 | 15 | 85 | –
B4 | – | – | – | % HMW (Q15848): 98%
B5 | 1 | – | – | –
B6 | – | 2 | 0 | stoichiometry N [5]: 18
B7 | – | 53 | 46 | stoichiometry N [4]: 3 and 6
